The values below come from article PMC4716839 (eLife, 2015).

B4: mouse Rpa heterotrimer (Rpa70, Rpa32, Rpa14) (complex)
chain 1: MVGHLSEGAIEVMIQQENTSIKPILQVINIRPISTGNRSPRYRLLMSDGLNTLSSFMLATQLNTLVEGGQLASNCVCQVHKFIVNTLKDGRKVVVLMDLEVMKSAEDVGLKIGNPVPYNEGYGQQQQQQQQQQQQAVPSPASAATPPASKPQPQNGSLGMGSTAAKAYGASKPFGKPAGTGLLQPSGGTQSKVVPIASLTPYQSKWTICARVTNKSQIRTWSNSRGEGKLFSLELVDESGEIRATAFNEQVDKFFPLIEVNKVYYFSKGALKIANKQFSAVKNDYEMTFNNETSVLPCEDGHHLPTVQFDFTGIGDLESKAKDALVDIIGICKSYEDSIKITVKSNNREVAKRNIYLMDMSGKVVTTTLWGEDADKFDGSRQPVMAIKGARVSDFGGRSLSVLSSSTVIVNPDIPEAYKLRGWFDSEGQALDGVSISDHRSGGAGGGNTNWKTLHEAKSENLGQGDKADYFSTVAAVVFLRKENCMYQACPTQDCNKKVIDQQNGLYRCEKCDREFPNFKYRMILSANIADFQENQWVTCFQESAEAILGQNTMYLGELKEKNEQAFEEVFQNANFRSFTFRIRVKLETYNDESRIKATVMDVKPVDFRDYGRRLIANIRKNM
chain 2: MWNSGFESFSSSTYGGAGGYTQSPGGFGSPTPSQAEKKSRVRAQHIVPCTISQLLSATLTDEVFRIGDVEISQVTIVGIIRHAEKAPTNIVYKIDDMTAPPMDVRQWVDTDDASGENAVVPPETYVKVAGHLRSFQNKKSLVAFKIIPLEDMNEFTAHILEVVNSHMMLSKPNSQASAGRPSMSNPGMSEPGNFSGNNFMPANGLTVVQNQVLNLIKACPRPEGLNFQDLRSQLQHMPVPSIKQAVDFLCNEGHIYSTVDDDHFKSTDAE
chain 3: MEDIMQLPKARVNASMLPQYIDRPVCFVGKLEKIHPTGKMFILSDGEGKNGTIELMEPLDEEISGIVEVVGKVTAKATVLCASYTLFKEDTNRFDLELYNEAVKIINELPQFFPVGLPQHE
notes: Rpa70 subunit of Replication Protein A, mouse; Rpa32 subunit of Replication Protein A, mouse; Rpa14 subunit of Replication Protein A, mouse; The GST tag on Rpa32 is called cleavable; also called heterotrimeric Rpa; full-length Rpa; source: Hi-5 insect cells co-infected with two baculoviruses, purified as described (Fan and Pavletich, 2012); copies: + +
B6: GST-tagged mouse Dna2 α1OB (α1 helix and OB domain, residues 1 to 122) (domain or fragment, UniProt Q6ZQJ5 1-122, looked up)
chain: MEPLDELDLLLLEEDGGAEAVPRVELLRKKADALFPETVLSRGVDNRYLVLAVETSQNERGAEEKRLHVTASQDREHEVLCILRNGWSSVPVEPGDIVHLEGDCTSEPWIIDDDFGYFILYP
notes: Dna2 nuclease-helicase, mouse, residues 1-122 (α1 helix and OB domain); full-length mouse Dna2 has residues 1 to 1062; Cloned into a pGEX-4T vector; also called GST-α1OB

What all share (details): both partners purified
For experiment [1], the target named is T1, mouse Rpa70N (residues 1–122) (mouse, UniProt Q8VEE4 1-122).
T1 construct: Rpa70, mouse, residues 1-122 (OBN domain); also called Rpa70N polypeptide; not shown: His6-SUMO, N-terminal, cleaved
T1 sequence (looked up): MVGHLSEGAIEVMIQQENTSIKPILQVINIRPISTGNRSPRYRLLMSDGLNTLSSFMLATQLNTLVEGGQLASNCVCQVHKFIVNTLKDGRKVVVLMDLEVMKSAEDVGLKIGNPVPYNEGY
Description: pull-down; GST-tagged mouse Dna2 fragment or GST (30 μM in Figure 4A) with an equal molar amount of Rpa or Rpa fragment; 20 mM Tris-HCl, 80 mM NaCl, 0.3 mM TCEP, 2% glycerol, pH 8.0, 4°C, 30 min, then glutathione beads; eluted with 20 mM glutathione, SDS-PAGE.

Experiment [2] deals with T2, mouse Rpa70AB (residues 191–431) (mouse, UniProt Q8VEE4 191-431).
T2 construct: Rpa70, mouse, residues 191-431 (DBD-A and DBD-B); also called Rpa70AB polypeptide; not shown: His6-SUMO, N-terminal, cleaved
The description is as above.

The target of experiment [3] is T3, human Rpa70N (OBN domain of Rpa70, residues 1–120) (human, UniProt P27694 1-120).
T3 construct: Rpa70, human, residues 1-120 (OBN domain); Used in ITC and in the co-crystals; also called Rpa70 OBN; RPA70 OBN; source: E. coli BL21DE3, purified
Description: ITC; MicroCal ITC200, 20°C, 20 mM HEPES, 80 mM NaCl, 0.2 mM TCEP, pH 7.5; human polypeptides.

The target in experiment [4] is B6. Nature of the experiment: pull-down; GST pull-down as a1 with (dT)24 or (dT)8 ssDNA added; concentrations shown in the figure; bound Rpa70 quantified relative to the lane without DNA.
In experiment [5] the target is T4, human Rpa70NAB (residues 1–422) (human, UniProt P27694 1-422).
T4 construct: Rpa70, human, residues 1-422 (OBN, DBD-A, DBD-B); source: E. coli BL21DE3, purified
Nature of the experiment: ITC; MicroCal ITC200, 20°C, 20 mM HEPES, 80 mM NaCl, 0.2 mM TCEP, pH 7.5; human polypeptides.

The target in experiment [6] is B4. Nature of the experiment: pull-down; GST-tagged mouse Dna2 fragment or GST (30 μM in Figure 4A) with an equal molar amount of Rpa or Rpa fragment; 20 mM Tris-HCl, 80 mM NaCl, 0.3 mM TCEP, 2% glycerol, pH 8.0, 4°C, 30 min, then glutathione beads; eluted with 20 mM glutathione, SDS-PAGE.
The target of experiment [7] is T5, mouse Rpa70NAB (Rpa70 fragment with the OBN, DBD-A and DBD-B domains, residues 1 to 431) (mouse, UniProt Q8VEE4 1-431).
T5 construct: Rpa70, mouse, residues 1-431 (OBN, DBD-A, DBD-B); not shown: His6-SUMO, N-terminal, cleaved
The description is as above.

T4 sequence (P27694 1-422): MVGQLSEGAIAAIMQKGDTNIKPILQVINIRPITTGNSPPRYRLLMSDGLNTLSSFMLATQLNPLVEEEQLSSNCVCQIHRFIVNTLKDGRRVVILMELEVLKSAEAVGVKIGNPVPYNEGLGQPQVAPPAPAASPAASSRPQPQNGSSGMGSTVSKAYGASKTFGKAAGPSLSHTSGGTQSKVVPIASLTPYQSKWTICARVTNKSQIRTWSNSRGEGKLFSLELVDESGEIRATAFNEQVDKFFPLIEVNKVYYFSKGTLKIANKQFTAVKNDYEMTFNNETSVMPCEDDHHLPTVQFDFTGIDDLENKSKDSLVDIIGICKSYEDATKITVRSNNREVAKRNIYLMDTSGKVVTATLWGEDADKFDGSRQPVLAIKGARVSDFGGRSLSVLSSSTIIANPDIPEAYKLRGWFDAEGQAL
T3 sequence (P27694 1-120): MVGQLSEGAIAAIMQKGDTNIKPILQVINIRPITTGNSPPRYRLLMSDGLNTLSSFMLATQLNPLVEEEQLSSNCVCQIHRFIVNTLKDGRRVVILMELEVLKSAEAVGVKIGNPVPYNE

B1: GST-tagged mouse Dna2 α1 (residues 1–20) (peptide, UniProt Q6ZQJ5 1-20, looked up)
chain: MEPLDELDLLLLEEDGGAEA
notes: Dna2, mouse, residues 1-20 (α1 helix); Cloned into a pGEX-4T vector; also called GST-α1
Take B1: in experiment [1], the binding result is given as “binds”.

B2: GST-tagged mouse Dna2 OB (residues 21–122) (domain or fragment, UniProt Q6ZQJ5 21-122, looked up)
chain: VPRVELLRKKADALFPETVLSRGVDNRYLVLAVETSQNERGAEEKRLHVTASQDREHEVLCILRNGWSSVPVEPGDIVHLEGDCTSEPWIIDDDFGYFILYP
notes: Dna2, mouse, residues 21-122 (OB domain); Cloned into a pGEX-4T vector; also called GST-OB
Turning to B2, the binding result in experiment [2] is recorded as “binds”.

B3: human Dna2 α1 (residues 1–20), polypeptide used in ITC (peptide, UniProt P51530 1-20, looked up)
chain: MEQLNELELLMEKSFWEEAE
notes: Dna2, human, residues 1-20 (α1 helix); also called Dna2 α1 helix; source: E. coli BL21DE3, purified
B3 showed a Kd in experiment [3] of 34 ± 7 µM.
On to B4, for which, in experiment [4], the “fold reduction of bound Rpa by one molar equivalent of (dT)24 ssDNA” value is ~4 fold.

B5: human Dna2 α1OB (residues 1–122) (domain or fragment, UniProt P51530 1-122, looked up)
chain: MEQLNELELLMEKSFWEEAELPAELFQKKVVASFPRTVLSTGMDNRYLVLAVNTVQNKEGNCEKRLVITASQSLENKELCILRNDWCSVPVEPGDIIHLEGDCTSDTWIIDKDFGYLILYPD
notes: Dna2, human, residues 1-122 (α1 helix and OB domain); source: E. coli BL21DE3, purified
In experiment [5], B5 displayed a Kd of 12 ± 1 µM.
For the molecule B6, the binding result in experiment [6] and in experiment [7] was “binds” in each case.
